Results reported in publication PMC9093105.

Molecular target: Human sapovirus (HuSaV) GI.6 capsid protein VP1, Nichinan strain, self-assembled as a virus-like particle (VLP) (human sapovirus GI.6, Nichinan strain)
Experiment: cryo-EM structure; single-particle cryo-EM of purified VLPs in Express Five SFM, icosahedral symmetry imposed, 2.9 Å; de novo atomic model

Human sapovirus (HuSaV) GI.6 capsid protein VP1, Nichinan strain, self-assembled as a virus-like particle (VLP) (natural protein)
stoichiometry N: 180 copies
